The record followed here is publication PMC4118585.

The target in the test is HCMV glycoprotein M (gM, UL100) in HCMV-infected cells (HCMV strain AD169). Put plainly: FRET or BRET.
Chain of HCMV glycoprotein M (gM, UL100) in HCMV-infected cells (HCMV strain AD169) (P16733 whole entry): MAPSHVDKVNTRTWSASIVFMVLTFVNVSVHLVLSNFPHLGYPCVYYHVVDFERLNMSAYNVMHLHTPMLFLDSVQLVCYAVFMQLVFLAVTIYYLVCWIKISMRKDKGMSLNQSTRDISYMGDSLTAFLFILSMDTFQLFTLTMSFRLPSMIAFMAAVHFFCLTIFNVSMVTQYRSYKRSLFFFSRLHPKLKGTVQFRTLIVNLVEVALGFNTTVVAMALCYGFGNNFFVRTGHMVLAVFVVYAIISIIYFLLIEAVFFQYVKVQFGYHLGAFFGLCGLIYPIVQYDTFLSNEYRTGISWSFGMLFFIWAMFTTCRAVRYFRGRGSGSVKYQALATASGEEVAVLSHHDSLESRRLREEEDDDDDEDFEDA

B1: myc-tagged FIP4 (FIP4-myc), full length (natural protein)
chain: MAGGAGWSGAPAALLRSVRRLREVFEVCGRDPDGFLRVERVAALGLRFGQGEEVEKLVKYLDPNDLGRINFKDFCRGVFAMKGCEELLKDVLSVESAGTLPCAPEIPDCVEQGSEVTGPTFADGELIPREPGFFPEDEEEAMTLAPPEGPQELYTDSPMESTQSLEGSVGSPAEKDGGLGGLFLPEDKSLVHTPSMTTSDLSTHSTTSLISNEEQFEDYGEGDDVDCAPSSPCPDDETRTNVYSDLGSSVSSSAGQTPRKMRHVYNSELLDVYCSQCCKKINLLNDLEARLKNLKANSPNRKISSTAFGRQLMHSSNFSSSNGSTEDLFRDSIDSCDNDITEKVSFLEKKVTELENDSLTNGDLKSKLKQENTQLVHRVHELEEMVKDQETTAEQALEEEARRHREAYGKLEREKATEVELLNARVQQLEEENTELRTTVTRLKSQTEKLDEERQRMSDRLEDTSLRLKDEMDLYKRMMDKLRQNRLEFQKEREATQELIEDLRKELEHLQMYKLDCERPGRGRSASSGLGEFNARAREVELEHEVKRLKQENYKLRDQNDDLNGQILSLSLYEAKNLFAAQTKAQSLAAEIDTASRDELMEALKEQEEINFRLRQYMDKIILAILDHNPSILEIKH
Regarding B1, the average FRET efficiency was 27%.

B2: myc-tagged FIP3 (FIP3-myc) (natural protein)
chain: MASAPPASPPGSEPPGPDPEPGGPDGPGAAQLAPGPAELRLGAPVGGPDPQSPGLDEPAPGAAADGGARWSAGPAPGLEGGPRDPGPSAPPPRSGPRGQLASPDAPGPGPRSEAPLPELDPLFSWTEEPEECGPASCPESAPFRLQGSSSSHRARGEVDVFSPFPAPTAGELALEQGPGSPPQPSDLSQTHPLPSEPVGSQEDGPRLRAVFDALDGDGDGFVRIEDFIQFATVYGAEQVKDLTKYLDPSGLGVISFEDFYQGITAIRNGDPDGQCYGGVASAQDEEPLACPDEFDDFVTYEANEVTDSAYMGSESTYSECETFTDEDTSTLVHPELQPEGDADSAGGSAVPSECLDAMEEPDHGALLLLPGRPHPHGQSVITVIGGEEHFEDYGEGSEAELSPETLCNGQLGCSDPAFLTPSPTKRLSSKKVARYLHQSGALTMEALEDPSPELMEGPEEDIADKVVFLERRVLELEKDTAATGEQHSRLRQENLQLVHRANALEEQLKEQELRACEMVLEETRRQKELLCKMEREKSIEIENLQTRLQQLDEENSELRSCTPCLKANIERLEEEKQKLLDEIESLTLRLSEEQENKRRMGDRLSHERHQFQRDKEATQELIEDLRKQLEHLQLLKLEAEQRRGRSSSMGLQEYHSRARESELEQEVRRLKQDNRNLKEQNEELNGQIITLSIQGAKSLFSTAFSESLAAEISSVSRDELMEAIQKQEEINFRLQDYIDRIIVAIMETNPSILEVK
In turn, B2 came in with an average FRET efficiency of less than 2%.
